Consider 17 molecules from patent EP4725969A1 (Latticon (Suzhou) Biopharmaceuticals Co., Ltd., dated 2024).

The chains are these.
B1: Hu2117HK-Mu16 (Fc fusion, name in Kabat numbering)
scFv: EVQLVESGGGLVQPGGSLRLSCAASGFTYSSYGMSWVRQAPGKGLEWVASISGGGSYTKYPDSVKGRFTISRDNSKNTLYLQMNSLRAEDTAVYYCARDYAGFFDVWGQGTLVTVSSGGGGSGGGGSGGGGSDIQMTQSPSSLSASVGDRVTITCRSSQSLVHSGGNTYLHWYQQKPGKAPKLLIYKVSNRFSGVPSRFSGSGSGTDFTLTISSLQPEDFATYFCSQSTHVPYTFGQGTKVEIK
notes: scFv-hIgG1 Fc; not shown: human IgG1 Fc
B2: Hu2117HK-Mu30 (Fc fusion, not shown: a dimerising Fc or GST; small tags and cut ends)
scFv: EVQLVESGGGLVQPGGSLRLSCAASGFTYSSYGMSWVRQAPGKGLEWVASISGGGSYTKYPDSVKGRFTISRDNSKNTLYLQMNSLRAEDTAVYYCARDYAGFFDVWGQGTLVTVSSGGGGSGGGGSGGGGSDIQMTQSPSSLSASVGDRVTITCRSSQSLVDSNGNTYLHWYQQKPGKAPKLLIYKVSNRFSGVPSRFSGSGSGTDFTLTISSLQPEDFATYFCSQSTHVPYTFGQGTKVEIK
notes: scFv-hIgG1 Fc
B3: Hu2117HK-Mu34 (Fc fusion)
scFv: EVQLVESGGGLVQPGGSLRLSCAASGFTYSSYGMSWVRQAPGKGLEWVASISGGGSYTKYPDSVKGRFTISRDNSKNTLYLQMNSLRAEDTAVYYCARDYAGFFDVWGQGTLVTVSSGGGGSGGGGSGGGGSDIQMTQSPSSLSASVGDRVTITCRSSQSLVHSNGNTYLHWYQQKPGKAPKLLIYKVSNRFSGVPSRFSGSGSGTDFTLTISSLQPEDFATYFCQQSTHVPYTFGQGTKVEIK
notes: as for B1
B4: Hu2117HK-Mu24 (Fc fusion)
scFv: EVQLVESGGGLVQPGGSLRLSCAASGFTYSSYGMSWVRQAPGKGLEWVASISGGGSYTKYPDSVKGRFTISRDNSKNTLYLQMNSLRAEDTAVYYCARDYAGFFDVWGQGTLVTVSSGGGGSGGGGSGGGGSDIQMTQSPSSLSASVGDRVTITCRSSQSLVHSNINTYLHWYQQKPGKAPKLLIYKVSNRFSGVPSRFSGSGSGTDFTLTISSLQPEDFATYFCSQSTHVPYTFGQGTKVEIK
notes: as for B1
B5: Hu2117HK-Mu25 (Fc fusion)
scFv: EVQLVESGGGLVQPGGSLRLSCAASGFTYSSYGMSWVRQAPGKGLEWVASISGGGSYTKYPDSVKGRFTISRDNSKNTLYLQMNSLRAEDTAVYYCARDYAGFFDVWGQGTLVTVSSGGGGSGGGGSGGGGSDIQMTQSPSSLSASVGDRVTITCRSSQSLVHSNSNTYLHWYQQKPGKAPKLLIYKVSNRFSGVPSRFSGSGSGTDFTLTISSLQPEDFATYFCSQSTHVPYTFGQGTKVEIK
notes: as for B1
B6: Hu2117HK-Mu22 (Fc fusion, name in Kabat numbering)
scFv: EVQLVESGGGLVQPGGSLRLSCAASGFTYSSYGMSWVRQAPGKGLEWVASISGGGSYTKYPDSVKGRFTISRDNSKNTLYLQMNSLRAEDTAVYYCARDYAGFFDVWGQGTLVTVSSGGGGSGGGGSGGGGSDIQMTQSPSSLSASVGDRVTITCRSSQSLVHSVGNTYLHWYQQKPGKAPKLLIYKVSNRFSGVPSRFSGSGSGTDFTLTISSLQPEDFATYFCSQSTHVPYTFGQGTKVEIK
notes: as for B1
B7: Hu2117HK-Mu20 (Fc fusion, name in Kabat numbering)
scFv: EVQLVESGGGLVQPGGSLRLSCAASGFTYSSYGMSWVRQAPGKGLEWVASISGGGSYTKYPDSVKGRFTISRDNSKNTLYLQMNSLRAEDTAVYYCARDYAGFFDVWGQGTLVTVSSGGGGSGGGGSGGGGSDIQMTQSPSSLSASVGDRVTITCRSSQSLVHSSGNTYLHWYQQKPGKAPKLLIYKVSNRFSGVPSRFSGSGSGTDFTLTISSLQPEDFATYFCSQSTHVPYTFGQGTKVEIK
notes: as for B1
B8: Hu2117HK-Mu19 (Fc fusion, name in Kabat numbering)
scFv: EVQLVESGGGLVQPGGSLRLSCAASGFTYSSYGMSWVRQAPGKGLEWVASISGGGSYTKYPDSVKGRFTISRDNSKNTLYLQMNSLRAEDTAVYYCARDYAGFFDVWGQGTLVTVSSGGGGSGGGGSGGGGSDIQMTQSPSSLSASVGDRVTITCRSSQSLVHSQGNTYLHWYQQKPGKAPKLLIYKVSNRFSGVPSRFSGSGSGTDFTLTISSLQPEDFATYFCSQSTHVPYTFGQGTKVEIK
notes: as for B1
B9: Hu2117HK-Mu21 (Fc fusion, name in Kabat numbering)
scFv: EVQLVESGGGLVQPGGSLRLSCAASGFTYSSYGMSWVRQAPGKGLEWVASISGGGSYTKYPDSVKGRFTISRDNSKNTLYLQMNSLRAEDTAVYYCARDYAGFFDVWGQGTLVTVSSGGGGSGGGGSGGGGSDIQMTQSPSSLSASVGDRVTITCRSSQSLVHSTGNTYLHWYQQKPGKAPKLLIYKVSNRFSGVPSRFSGSGSGTDFTLTISSLQPEDFATYFCSQSTHVPYTFGQGTKVEIK
notes: as for B1
B10: Hu2117HK-Mu29 (Fc fusion)
scFv: EVQLVESGGGLVQPGGSLRLSCAASGFTYSSYGMSWVRQAPGKGLEWVASISGGGSYTKYPDSVKGRFTISRDNSKNTLYLQMNSLRAEDTAVYYCARDYAGFFDVWGQGTLVTVSSGGGGSGGGGSGGGGSDIQMTQSPSSLSASVGDRVTITCRSSQSLLHSNGNTYLHWYQQKPGKAPKLLIYKVSNRFSGVPSRFSGSGSGTDFTLTISSLQPEDFATYFCSQSTHVPYTFGQGTKVEIK
notes: as for B1
B11: Hu2117HK-Mu18 (Fc fusion, name in Kabat numbering)
scFv: EVQLVESGGGLVQPGGSLRLSCAASGFTYSSYGMSWVRQAPGKGLEWVASISGGGSYTKYPDSVKGRFTISRDNSKNTLYLQMNSLRAEDTAVYYCARDYAGFFDVWGQGTLVTVSSGGGGSGGGGSGGGGSDIQMTQSPSSLSASVGDRVTITCRSSQSLVHSLGNTYLHWYQQKPGKAPKLLIYKVSNRFSGVPSRFSGSGSGTDFTLTISSLQPEDFATYFCSQSTHVPYTFGQGTKVEIK
notes: as for B1
B12: Hu2117HK-Mu17 (Fc fusion, name in Kabat numbering)
scFv: EVQLVESGGGLVQPGGSLRLSCAASGFTYSSYGMSWVRQAPGKGLEWVASISGGGSYTKYPDSVKGRFTISRDNSKNTLYLQMNSLRAEDTAVYYCARDYAGFFDVWGQGTLVTVSSGGGGSGGGGSGGGGSDIQMTQSPSSLSASVGDRVTITCRSSQSLVHSIGNTYLHWYQQKPGKAPKLLIYKVSNRFSGVPSRFSGSGSGTDFTLTISSLQPEDFATYFCSQSTHVPYTFGQGTKVEIK
notes: as for B1
B13: Hu2117HK-Mu35 (Fc fusion, name in Kabat numbering)
scFv: EVQLVESGGGLVQPGGSLRLSCAASGFTYSSYGMSWVRQAPGKGLEWVASISGGGSYTKYPDSVKGRFTISRDNSKNTLYLQMNSLRAEDTAVYYCARDYAGFFDVWGQGTLVTVSSGGGGSGGGGSGGGGSDIQMTQSPSSLSASVGDRVTITCRSSQSLVHSNGNTYLHWYQQKPGKAPKLLIYKVSNRFSGVPSRFSGSGSGTDFTLTISSLQPEDFATYFCLQSTHVPYTFGQGTKVEIK
notes: as for B1
B14: Hu2117HK-Mu32 (Fc fusion)
scFv: EVQLVESGGGLVQPGGSLRLSCAASGFTYSSYGMSWVRQAPGKGLEWVASISGGGSYTKYPDSVKGRFTISRDNSKNTLYLQMNSLRAEDTAVYYCARDYAGFFDVWGQGTLVTVSSGGGGSGGGGSGGGGSDIQMTQSPSSLSASVGDRVTITCRSSQSLVSSNGNTYLHWYQQKPGKAPKLLIYKVSNRFSGVPSRFSGSGSGTDFTLTISSLQPEDFATYFCSQSTHVPYTFGQGTKVEIK
notes: as for B1
B15: Hu2117HK-Mu28 (Fc fusion)
scFv: EVQLVESGGGLVQPGGSLRLSCAASGFTYSSYGMSWVRQAPGKGLEWVASISGGGSYTKYPDSVKGRFTISRDNSKNTLYLQMNSLRAEDTAVYYCARDYAGFFDVWGQGTLVTVSSGGGGSGGGGSGGGGSDIQMTQSPSSLSASVGDRVTITCRSSQSLVHSNTNTYLHWYQQKPGKAPKLLIYKVSNRFSGVPSRFSGSGSGTDFTLTISSLQPEDFATYFCSQSTHVPYTFGQGTKVEIK
notes: as for B1
B16: Hu2117HK-Mu27 (Fc fusion)
scFv: EVQLVESGGGLVQPGGSLRLSCAASGFTYSSYGMSWVRQAPGKGLEWVASISGGGSYTKYPDSVKGRFTISRDNSKNTLYLQMNSLRAEDTAVYYCARDYAGFFDVWGQGTLVTVSSGGGGSGGGGSGGGGSDIQMTQSPSSLSASVGDRVTITCRSSQSLVHSNRNTYLHWYQQKPGKAPKLLIYKVSNRFSGVPSRFSGSGSGTDFTLTISSLQPEDFATYFCSQSTHVPYTFGQGTKVEIK
notes: as for B1
B17: Hu2117HK-Mu23 (Fc fusion)
scFv: EVQLVESGGGLVQPGGSLRLSCAASGFTYSSYGMSWVRQAPGKGLEWVASISGGGSYTKYPDSVKGRFTISRDNSKNTLYLQMNSLRAEDTAVYYCARDYAGFFDVWGQGTLVTVSSGGGGSGGGGSGGGGSDIQMTQSPSSLSASVGDRVTITCRSSQSLVHSNANTYLHWYQQKPGKAPKLLIYKVSNRFSGVPSRFSGSGSGTDFTLTISSLQPEDFATYFCSQSTHVPYTFGQGTKVEIK
notes: as for B1

This test has as its target T1, recombinant human HER2 extracellular domain protein (human, UniProt P04626 23-652).
T1 construct: range 23-652; Range is printed for the immunogen/panning protein; also called ErbB2; recombinant HER2 protein
In words: BLI, Protein A capture. (In BLI a coated tip is dipped into the sample, and binding shifts an interference pattern.)
As usually defined, the Kd is the constant that tells how readily two partners part at equilibrium. As a reminder, the koff is the first-order rate constant of dissociation. Broadly, the kon is the second-order rate constant of association. As to B1, the Kd is 8.76 nM, the koff came to 0.00051 s⁻¹ and the on-rate (kon) came to 58200 M⁻¹ s⁻¹.
B2: the Kd stood at 8.27 nM, the off-rate constant (koff) came to 0.000301 s⁻¹ and the kon worked out at 36400 M⁻¹ s⁻¹.
For B3, the Kd worked out at 12.6 nM, the koff worked out at 0.00117 s⁻¹ and the on-rate constant (kon) amounted to 93500 M⁻¹ s⁻¹.
In the same order, the values of B4 are 6.65 nM, 0.000423 s⁻¹ and 63700 M⁻¹ s⁻¹.
As to B5, the equilibrium dissociation constant (Kd) is 6.73 nM, the koff amounted to 0.00056 s⁻¹ and the kon amounted to 83100 M⁻¹ s⁻¹.
In the case of B6, the Kd came out at 13.4 nM, the koff is 0.00059 s⁻¹ and the kon was 43900 M⁻¹ s⁻¹.
B7: the Kd is 13.3 nM, the koff was 0.000616 s⁻¹ and the kon is 46500 M⁻¹ s⁻¹.
On to B8, for which the Kd came out at 13.9 nM, the koff was determined as 0.000837 s⁻¹ and the kon came to 60100 M⁻¹ s⁻¹.
Turning to B9, the Kd is 12 nM, the off-rate (koff) came out at 0.00056 s⁻¹ and the association rate constant (kon) was 46800 M⁻¹ s⁻¹.
Turning to B10, the Kd stood at 7.62 nM, the koff came to 0.000668 s⁻¹ and the kon amounted to 87700 M⁻¹ s⁻¹.
In the case of B11, the Kd came to 11.4 nM, the koff worked out at 0.000483 s⁻¹ and the kon was 42600 M⁻¹ s⁻¹.
The matching figures for B12: 14.9 nM, 0.000738 s⁻¹ and 49500 M⁻¹ s⁻¹.
With B13, the Kd came to 59.8 nM, the koff was found to be 0.0037 s⁻¹ and the kon was determined as 61900 M⁻¹ s⁻¹.
As to B14, the Kd was 6.09 nM, the koff was determined as 0.000366 s⁻¹ and the kon came to 60100 M⁻¹ s⁻¹.
B15: the Kd was 7.15 nM, the koff came to 0.000592 s⁻¹ and the kon amounted to 82800 M⁻¹ s⁻¹.
With B16, the Kd was determined as 7.38 nM, the koff was determined as 0.000592 s⁻¹ and the kon was found to be 80200 M⁻¹ s⁻¹.
B17: the Kd came to 6.67 nM, the koff turned out to be 0.000542 s⁻¹ and the kon stood at 81200 M⁻¹ s⁻¹.
